According to the DeepSol protein solubility set:

Test: soluble on expression in E. coli; label from the status in PepcDB or PDB records
With “MEGVDPAVEEAAFVADDVSNIIKESIDAVLQNQQYSEAKVSQWTSSCLEHCIKRLTALNKPFKYVVTCIIMQKNGAGLHTAASCWWDSTTDGSRTVRWENKSMYCICTVFGLAI” the “soluble on expression in E. coli” value was “soluble”.
For “WTVNPYRGCTHACVYCFARKTHSYLDLDTGLGFDSQIVVKINAPDLLRRQLASRRWHGEHVAMGTNVDCYQRAEGRYQLMPGIIAALRDHANPFSILTKGTLILRDLDLLEQAAEVTDVGISVSVGFTDHELWRTVEPGTPAPERRLDVVRTLSEHGIGCGVLMAPVIPFLSDQPAQLRATVRAIAAAGATSVTPLVLHLRPGAREWFMAWLEHHHPYLVRRYERLYAEGAYAPKWYQRRITRQVHELAQEYGIGPTRAGMPRRIPEPEPETPPTPEPTQLTLL”, the “soluble on expression in E. coli” value was “not soluble”.
With “MRLTNYSDYALRILTYLGLKREELSTITEIADCYGISRNHVVKIVHHLGQLGYVDTLRGKNGGIRLAHAPEKINIGEVIRHTETSMDIVECFSNQNSCIIGCSCVLRTAISEALSAFMAVLDDYTLADLIAPRRQLSRKLHVMQISDSLSD” the “soluble on expression in E. coli” value was “not soluble”.
In the case of “MMDRVCRLSLAALLAGSGAAYADGSTLTVAYYGGNWGEAFDACVAQPFTEKTGIRVVAEIGNSTTTLAKLQQQSGDAVIDVAYMDGGISELAQEAGVLAPIDLAAIPNAASYLPQAVYKAGDEVFAVSAGYYSLGLIYNTSEVTETPDTWLSLWDESYAGAVALPSPSNSSGVPFVLFLARSVLGDTSESLDPTFAKLKELDTGLLFDSSGAASNAFQSSEVIIGAHFNVGAWDLTDGGLPIGFSVPKEGVWATDARMHVVKGTKNPEGAAQYLDMAASPEAAACLAERLYLGPPVTGVTLAPDVERKLPWGEGGSVEKLHLSDWTEVNARRAAIVERWNREIAN”, the “soluble on expression in E. coli” value is reported as “not soluble”.
For “METLIAISRWLAKQHVVTWCVQQEGELWCANAFYLFDAQKVAFYILTEEKTRHAQMSGPQAAVAGTVNGQPKTVALIRGVQFKGEIRRLEGEESDLARKAYNRRFPVARMLSAPVWEIRLDEIKFTDNTLGFGKKMIWLRDSGTEQA”, the “soluble on expression in E. coli” value was “soluble”.
For “MERQVFIRLRHRLEADPDELILLGHIAQVAGDRGYKEKLERLPIYQVSKADQSMVVLDVMKVIEAVHKSFPDLDVQTVGGSETIVEIQYPKRDLSP”, the “soluble on expression in E. coli” value was “soluble”.
With “RELIRHGAEVHAVMSEAATKIIHPYAMEFATGNPVITEITGFIEHVELAGEHENKADLILVCPATANTISKIACGIDDTPVTTVVTTAFPHIPIMIAPAMHETMYRHPIVRENIERLKKLGVEFIGPRIEEGKAKVASIDEIVYRVIKKLHKKTLEGKRVL” the “soluble on expression in E. coli” value was “not soluble”.
With “MSVEAAKNARELLLKEYRAVLSTHSKKWPGFPFGSVVPYCLDAEGRPLILISRIAQHTHNLQADPRCSMLVGERGAEDIQAVGRLTLLAEARQLAEEEVAAAAERYYRYFPESADYHRVHDFDFWVLQPVQWRFIGGFGAIHWLAAERVPLANPFAGEAERGMVEHMNSDHAAAIAHYVELAGLPAHAAAQLAGIDTEGFHLRIGQGLHWLPFPAACGNPGAVRQALVQLARAERWPTVEPEQG” the “soluble on expression in E. coli” value was “soluble”.
In the case of “MLKIIQGALDTRELLKAYQEEACAKNFGAFCVFVGIVRKEDNIQGLSFDIYEALLKTWFEKWHHKAKDLGVVLKMAHSLGDVLIGQSSFLCVSMGKNRKNALELYENFIEDFKHNAPIWKYDLIHNKRIYAKERSHPLKGSGLLALEHHHHHH”, the “soluble on expression in E. coli” value is reported as “soluble”.
For “MRILHTSDWHLGKNLEGYSRMDEQEEFLEDFIKIVEENNIDMVVIAGDIYDTYNPPARAEKMFYSTLKKISQNGERVTLVIAGNHDNPERLVAAGPLARDHGIIMVGTPKSVVPTGEYGKHKVLSSKEGFIEIEVNGERASIITLPYPSEKRLNEVLYEEMDSEEEKVKSYGDRIKQLFDRLSENFRDDTINMVVSHLFAMGSEEGGSERNVQLGGSFIVNGDCFPKNAQYVALGHVHKPQLVPGTHKIARYSGSPIQYNKKEINFKKKCFLVNIEAGKEPIVDEIEFKVYKPIEVWKCTGVEEAIKKCEENKDRDCWVYLEIVTDKYIGEEEMKAMKSLKKDILEILPKVSVDNEIIDMASFKERPFEEIFKEFYKKERKVEPDNEVVDLLLSIINGGEAEDETHKS”, the “soluble on expression in E. coli” value was “not soluble”.
In the case of “MGHHHHHHSHLSFHFPPRVTGHPWSLVFCTSRDGFSLQSLYRRMEGCSGPVLLVLRDQDGQIFGAFSSSAIRLSKGFYGTGETFLFSFSPQLKVFKWTGSNSFFVKGDLDSLMMGSGSGRFGLWLDGDLFRGGSSPCPTFNNEVLARQEQFCIQELEAWLLS”, the “soluble on expression in E. coli” value is reported as “not soluble”.
In the case of “MAISVFDLFSIGIGPSSSHTVGPMRAARMFARRLRNEELLDSVASVRVELYGSLGATGHGHGTPKAVLLGLEGDSPRTVDVESADDRVETIKSSGRISLLGDHEIAFAYDDDMVLHRRKALPYHANGMTLWAYDAEGAEVLTKTYYSVGGGFVVDEDAVGADRIVLDDTVLKYPFRTGDELLRLARETGLSISALMLENERAWRDEDEIREGLLEIWRVMRACVDRGMTREGILPGGLKVRRRAANTARKLRSEGDPQALAMEWITLYAMAVNEENAAGGRVVTAPTNGAAGIIPAVLHYYMNFVPGADEDGVVRFLLAAGAIGMLFKENASISGAEVGCQGEVGSACSMAAGALAEVLGGSPEQVENAAEIGMEHNLGLTCDPVGGLVQIPCIERNGMAAVKAVTAARMAMRGDGSHKVSLDKVIKTMKETGADMSVKYKETARGGLAVNIIEC”, the “soluble on expression in E. coli” value is reported as “not soluble”.
With “MGHHHHHHSHMSDWLEHSVQVEVAVPVARAWELWSDLEQMPRWMKWIDSVQVQKDDPELSRWKLASQGFEFSWLSRITRLVPQQLIQWESVDGLPNRGAIRFYDRQDHSIVRLSISYAIPGGLGPLMDKLFLGRIVEGTLKADLDRFRHYAESPR” the “soluble on expression in E. coli” value was “not soluble”.
With “MQANAIDFENYELLQDDVCARRIVAAKQKLGKRAIILAHHYQRADVYCHADLTGDSLKLSYLAARTDTEFLVFCGVHFMAEVADILSSSEQTVILPDLSAGCSMADMANLTKVERVWRELAEVLDPDERVTPVTYINSSADLKAFCGQHDGIVCTSSNAVKILQWAFSRREKVLFFPDQHLGRWSGYKMGLSPDEMPVWDFDEPMGGLTPEQIEKARILLWKGHCSVHQMFQPQHILRFRNQYPDGLVISHPECSFEVCKASDYVGSTEYIINTIRAAKSGTRWLVGTELNLVGRIAEEFKAEGKIIQFMSPMVCMCSTMARIDPQHLAWSLENLAEGRVVNQIRVPEPQASLAKLTLEKMLEVSKLEHHHHHH” the “soluble on expression in E. coli” value was “not soluble”.
In the case of “MGSDKIHHHHHHMITESRQMLDKRNRPLRDLRISVTDRCNFRCTYCMPAELFGPDYPFLKKEELLSFEELERLATLFVTRFGVEKIRLTGGEPLMRKDMPELIKKLARIPGIRDIAMTTNGSLLPVYAKRLKEAGLKRVTISLDSLEDERFKKINGRGVSVSKVLEGIEAAKQAGLGVKINMVVQKGVNEKDILPMARYFKEKGHILRFIEFMDVGNTNQWEKKDVMTKAEIIDLINKHMPVEPIAPNYIGEVASRFRYLDGSGEIGVISSVSDAFCGSCNRARLSARGELFTCLFASSGFDLRAPVRQELSDDELSEMIGTVWKNRIDQYSVDRTLSKASGKKKVEMSYIGG”, the “soluble on expression in E. coli” value is reported as “not soluble”.
For “MAHHHHHHMSSVKITLFQGKFRLDRLLGKGGFGEVYAGVQVSTGEPVAVKLERNKGRCFLFHEARVMQDIQNSMPGRTTPGIPELKYFGQEGDFRILIMSLLGPSLEDLHAKLGRFSLKTTVMLADEMLSRLEFIHSVGYIHRDLKPDNYLLGVGRNVRHLYLIDLGLSVRYRSTNGEHREMATGKSFVGTSRYASLRTHKGFSQSRRDDMEQLSYILIYLYRGHLPWSGLRMKDREAKEKAIGEIKQKLTTAQICSKCPSQFEDLLNYSRKLEFAESPQYEMCRILIASVLDTIGPNVKHDFQYDWVNVRKRDNSPPPPPPCIVTHERRATENKINLKKGNENGEKDAATIGSKIFCFFPGLSSSASQEMVLVNEK”, the “soluble on expression in E. coli” value was “not soluble”.
For “MNQNQNKKTKIVALSMMNSQTSGNPSRGTTKFESYTFDYWQYIDTLVYWGGSSGEGIIVTPSADVIDEAHSNGVPVLGTIFLPPKEYGGKVDWVKTMLKKDEQGQYPFASQMVKVAKTYGFEGWFINEETQGLNADDAANMKALIQQVKKEDSSLQIMWYDAMTKDGKVDWQNQLNDQNATFVQDKAADAMFLNFWWTQNNLADQKLLEKSNLYAKNHNIDPYNIYAGIDVQAKDVQTPVKWNLLEKGNQATQTSIGLYAASATYTNASNWDDFQNRESAFWVNQKADPRQVDHSVNESWTGLSKYVLEKSAISGNEFNTNFNLGNGYNYFKAGQKISEMDWNDRSLAGILPSYRWIIDNEGKNKISPSFDFANAYNGGNSLKFMAEHLDAGKSSNITLFASDLKIAMGAKFSVSMRSDQALKVSAILELANGQKVSIAGDKSLTENWSKLEHHHHHH”, the “soluble on expression in E. coli” value was “soluble”.
For “NFIYAHLNRIIRRDDLNMIYIAGPGHGGPALVANTYLEGTYSEHYPDISQDIQGMKHLFRQFSFPGGIGSHATPEIPGSIHEGGELGYALSHAFGAVFDNPDLIAACVVGDGEAETGPLATAWHSNKFLNPVHDGAVLPILHLNGYKIANPTILARISREELDQLFQGYGYQPYIVEGEDPLTMHQLMA”, the “soluble on expression in E. coli” value was “not soluble”.
In the case of “MAHHHHHHSLAPLISVLDLTPVSTGQQPGEALRHTLELAEVADSYQYTRFWIAEHHNSGAFVSAATEILIALAAARTGRIRVGSGGVMLPNHSPLKVAENFMSLEALFPGRIDLGLGRAPGTDGRTALALRRSREALAADDFPTQIALLRAFAGETPWPAGSVFDGVLAEPRGVKLPPLWILGSSLYGAQLAGELGVGYAFAYHFSQEDPAVAVQTYHRHFRPGPLAEPYAILGVNALAAPTEDEARDLSLTSAALSLGILSGQRGVLRSPEEARQWLQEMDTDPAKLLKKARIGTPEQVWASLQELGESTGAQEMLVTTYAHDPLKRQQSYRLLAQAAGMTPQKEEG”, the “soluble on expression in E. coli” value is reported as “soluble”.
With “MVDVIALGEPLIQFNSFNPGPLRFVNYFEKHVAGSELNFCIAVVRNHLSCSLIARVGNDEFGKNIIEYSRAQGIDTSHIKVDNESFTGIYFIQRGYPIPMKSELVYYRKGSAGSRLSPEDINENYVRNSRLVHSTGITLAISDNAKEAVIKAFELAKSRSLDTNIRPKLWSSLEKAKETILSILKKYDIEVLITDPDDTKILLDVTDPDEAYRKYKELGVKVLLYKLGSKGAIAYKDNVKAFKDAYKVPVEDPTGAGDAMAGTFVSLYLQGKDIEYSLAHGIAASTLVITVRGDNELTPTLEDAERFLNEFKT” the “soluble on expression in E. coli” value was “soluble”.
With “MGSDKIHHHHHHMKLIATDMDGTLLNDERKISKENAEAIKAAQQDGIHVVVATGRDFKEASMPLKEAGLTCPILCVNGAEERSANGELIHAVSLAKNEALTILDILTAADVYFEVYTNRGAFTDDYEKGLEIVIDVLQSAGSDDSYEKMREIAKHRFESGAVQLTEDYTKLIDSTAVYKFLAFSRDETKRQAAKDDLEKKDVFSVSASASDNLEITHWQAQKGIALRRLAERLGINSDDVMAIGDNLNDVSMLKYAGTAVAMENGEAEVKQLADFVTASNEDNGVAKAINKWLK” the “soluble on expression in E. coli” value was “not soluble”.
For “MDKIASDKDLREPDAGLLLNIFDLYYDLASAPAQYAAKRAHILEAAKKASTWHIRHVAPKYKNYVVVIGESARSDYMNVYGFPLPDTPFLSQTKGLLINGYQSTAHATNLSLPQTLGLPGEPNNNIVSLAKQAGFRTAWLSNQGMLGHFANEISTYALRSDYPWFTQRGDYGKSAGLSDRLLLPAFKRVLIGNAGTKPRLIVMHLMGSHSDFCTRLDKDARRFQYQTEKISCYVSTIAQTDKFLEDTVKILNENKESWSLVYFSDHGLMHVGKGGERTLTHGAWKRQSYGVPLVKISSDDTRREMIKVRRSAFNFLRGFGSWTGIETDELPDDGYDFWGNVPDVQGEGNNLAFIDGLPDDPAPWYAGKGKSTKNTSKK”, the “soluble on expression in E. coli” value was “not soluble”.
